These results are taken from patent US20060110401A1, “Mixture of peptides from c and ns3 proteins of the hepatitis c virus and applications thereof” (priority 2002, published 2006).

No end group written: not given here.

The chains are these.
B1: 9N 1036-1055, P26664 1036-1055 (peptide)
peptide: TRGLLGCIITSLTGRDKNQV
modifications: not checked
B2: 9N 1041-1055 (peptide)
peptide: GCIITSLTGRDKNQV
modifications: not checked
B3: 29N 1569-1583 (peptide)
peptide: DAHFLSQTKQSGENL
modifications: not checked
B4: 18N 1246-1275 (peptide)
chain: AQGYKVLVLNPSVAATLGFGAYMSKAHGID
B5: 17N 1206-1239 (peptide)
chain: RSPVFTDNSSPPVVPQSFQVAHLHAPTGSGKSTK
B6: 1C 19-47 (peptide)
chain: PQDVKFPGGGQIVGGVYLLPRRGPRLGVR
B7: 13N 1127-1153 (peptide)
chain: SSDLYLVTRHADVIPVRRRGDSRGSLL
B8: 27N 1495-1513 (peptide)
chain: KPGIYRFVAPGERPSGMFD
B9: 8N 1007-1037 (peptide)
chain: GREILLGPADGMVSKGWRLLAPITAYAQQTR
B10: 10N 1052-1072 (peptide)
chain: KNQVEGEVQIVSTAAQTFLAT
B11: 19N 1275-1304 (peptide)
chain: DPNIRTGVRTITTGSPITYSTYGKFLADGG
B12: 24N 1404-1432 (peptide)
chain: AAKLVALGINAVAYYRGLDVSVIPTSGDV
B13: 2C 31-57 (peptide)
chain: VGGVYLLPRRGPRLGVRATRKTSERSQ
B14: 22N 1362-1387 (peptide)
chain: IEEVALSTTGEIPFYGKAIPLEVIKG
B15: 15N 1174-1195 (peptide)
chain: GHAVGIFRAAVCTRGVAKAVDF
B16: B1 21-36 (nonbiotinylated) (peptide)
peptide: TERVRLVTRHIYNREE
modifications: not fully specified
B17: 3C 93-107 (peptide)
peptide: WAGWLLSPRGSRPSW
modifications: not checked

One assay has as its target T1, HLA-DRB4 (DRB4*0101) (human).
T1 chain 1: not shown
T1 chain 2: not shown
In words: competition ELISA, purified HLA II; tracer biotinylated E2/E168.
Details: not given
(In general: ELISA stands for enzyme-linked immunosorbent assay.)
In turn, B1 returned an IC50 of 1000 nM.
The same measure, in the same setting: as for B2, the figure is 65000 nM.

A further assay addresses T2, HLA-DR7 (DRB1*0701) (human).
T2 chain 1: not shown
T2 chain 2: not shown
The assay can be described thus: competition ELISA, purified HLA II; tracer biotinylated YKL.
Details: not given
As to B3, the IC50 worked out at 3000 nM.
As to B1, the IC50 was 2600 nM. The IC50 values of the last two molecules are within 1.5-fold of each other.

Another assay concerns the target T3, HLA-DR3 (DRB1*0301) (human).
T3 chain 1: not shown
T3 chain 2: not shown
In words: competition ELISA, purified HLA II; tracer biotinylated MT 2-16.
Details: not given
In the case of B2, the IC50 is 62500 nM.

Another assay deals with HLA-DRB5 (DRB5*0101) (human). The assay can be described thus: competition binding. The conditions noted are these: chains peptide; modification not given.
Take B4: the IC50 stood at 1250 nM.
On to B5, for which the IC50 was found to be 350 nM. This IC50 lies about 3.6-fold lower than the previous one.
The molecule B6 had an IC50 of 9 nM.
The same measure, in the same setting: as for B7, the figure is 500 nM.
On the same count and under the same terms, as for B8, the figure is 2 nM.

The target of another assay is HLA-DR11 (DRB1*1101) (human). In words: competition binding. Particulars: chains peptide; modification not given.
B4 showed an IC50 of 40 nM.
The same measure, in the same setting: as for B5, the figure is 550 nM; as for B6, 58 nM.
B7 registered an IC50 of 17 nM.
The same measure, in the same setting: as for B9, the figure is 1 nM; as for B10, 200 nM.

Another assay has as its target HLA-DR7 (DRB1*0701) (human). In words: competition binding. Particulars: chains peptide; modification not given.
In turn, B7 yielded an IC50 of 17 nM.
The same measure, in the same setting: as for B10, the figure is 7 nM.

The next assay concerns the target HLA-DR13 (DRB1*1301) (human). In words: competition binding. Particulars: chains peptide; modification not given.
B4 gave an IC50 of 900 nM.
For B5, the IC50 is more than 100000 nM.
Same read-out and setting: as for B11, the figure is more than 100000 nM.
In turn, B7 had an IC50 of 300 nM.
Same read-out and setting: as for B8, the figure is more than 100000 nM.
Still for that read-out and setting: as for B9, the figure is 1250 nM.

The target of the next assay is HLA-DR3 (DRB1*0301) (human). In words: competition binding. Particulars: chains peptide; modification not given.
In the case of B6, the IC50 was more than 100000 nM.
Molecule B11 came in with an IC50 of more than 100000 nM.
On the same count and under the same terms, as for B7, the figure is more than 100000 nM; as for B8, more than 100000 nM.
In turn, B9 displayed an IC50 of 200 nM.

A further assay has as its target HLA-DRB3 (DRB3*0101) (human). The assay can be described thus: competition binding. Particulars: chains peptide; modification not given.
As to B4, the IC50 is more than 30000 nM.
Same read-out and setting: as for B6, the figure is more than 100000 nM; as for B11, 150 nM.
Same read-out and setting: as for B7, the figure is more than 10000 nM; as for B8, 40000 nM; as for B10, 10000 nM.

The target of another assay is HLA-DP402 (DPB1*0402) (human), P20036. The assay can be described thus: competition binding. The conditions noted are these: chains peptide; modification not given.
B12 yielded an IC50 of 7040 nM. This lies in the single-digit micromolar range.
With B13, the IC50 is more than 100000 nM.
Still for that read-out and setting: as for B8, the figure is more than 100000 nM.

The next assay has as its target HLA-DR15 (DRB1*1501) (human). In words: competition binding. Particulars: chains peptide; modification not given.
Take B4: the IC50 stood at 58 nM.
The molecule B5 yielded an IC50 of 10000 nM.
On the same count and under the same terms, as for B11, the figure is 550 nM.
In the case of B8, the IC50 amounted to 150 nM. This IC50 is about 3.7-fold lower than that of the molecule before.
Still for that read-out and setting: as for B9, the figure is 30 nM.

In another assay the target is HLA-DR1 (DRB1*0101) (human). The assay can be described thus: competition binding. Particulars: chains peptide; modification not given.
B4 showed an IC50 of 1 nM.
The molecule B14 yielded an IC50 of 33 nM.
For the molecule B6, the IC50 came out at 350 nM.
On the same count and under the same terms, as for B11, the figure is 150 nM.
The same measure, in the same setting: as for B7, the figure is 700 nM; as for B8, 163 nM.
In the case of B10, the IC50 amounted to 400 nM.

The target in the next assay is HLA-DR4 (DRB1*0401) (human). The assay can be described thus: competition binding. The conditions noted are these: chains peptide; modification not given.
With B4, the IC50 worked out at 5 nM.
On the same count and under the same terms, as for B5, the figure is 425 nM; as for B6, 70000 nM.
Molecule B11 registered an IC50 of 500 nM.
The molecule B7 showed an IC50 of 3500 nM.
Still for that read-out and setting: as for B8, the figure is 1250 nM; as for B9, 10 nM.

A further assay has as its target T4, HLA-DP401 (DPB1*0401) (human), P20036.
T4 chain 1: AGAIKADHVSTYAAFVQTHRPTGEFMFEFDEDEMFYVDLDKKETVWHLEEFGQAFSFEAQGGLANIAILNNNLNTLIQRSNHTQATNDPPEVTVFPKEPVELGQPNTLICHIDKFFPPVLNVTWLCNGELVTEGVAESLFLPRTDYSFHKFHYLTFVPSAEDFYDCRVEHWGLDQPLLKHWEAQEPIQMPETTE
T4 chain 2: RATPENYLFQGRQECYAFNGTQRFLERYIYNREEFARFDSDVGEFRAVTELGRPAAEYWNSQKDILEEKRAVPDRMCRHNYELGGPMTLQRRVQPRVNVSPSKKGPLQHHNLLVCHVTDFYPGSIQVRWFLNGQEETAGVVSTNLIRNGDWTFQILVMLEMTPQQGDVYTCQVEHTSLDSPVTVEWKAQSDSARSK
The assay can be described thus: competition binding. The conditions noted are these: chains peptide; modification not given.
Molecule B4 registered an IC50 of more than 100000 nM.
On the same count and under the same terms, as for B7, the figure is more than 100000 nM; as for B12, 32700 nM; as for B13, more than 100000 nM.
Turning to B8, the IC50 was more than 100000 nM.
On the same count and under the same terms, as for B15, the figure is 17800 nM.

A further assay has as its target HLA-DRB4 (DRB4*0101) (human). The assay can be described thus: competition binding. The conditions noted are these: chains peptide; modification not given.
B6 yielded a half-maximal inhibitory concentration (IC50) of 6000 nM.
On the same count and under the same terms, as for B11, the figure is 3500 nM; as for B8, 138 nM; as for B9, 60 nM.
B10 came in with an IC50 of 400 nM.

The target of a further assay is T5, HLA-DR15 (DRB1*1501) (human).
T5 chain 1: not shown
T5 chain 2: not shown
The assay can be described thus: competition ELISA, purified HLA II; tracer biotinylated A3 152-166.
Details: not given
B3 showed an IC50 of 2800 nM. This counts as single-digit micromolar.
For B1, the IC50 was determined as 5500 nM.
The same measure, in the same setting: as for B2, the figure is 525 nM.

The next assay concerns the target T6, HLA-DR13 (DRB1*1301) (human).
T6 chain 1: not shown
T6 chain 2: not shown
In words: competition ELISA, purified HLA II; unlabeled peptide against its own biotinylated tracer.
Details: not given
In the case of B16, the IC50 is 330 nM.

The target in the next assay is T7, HLA-DR11 (DRB1*1101) (human).
T7 chain 1: not shown
T7 chain 2: not shown
In words: competition ELISA, purified HLA II; tracer biotinylated HA 306-318.
Details: not given
On to B3, for which the IC50 came to 22 nM.
The same measure, in the same setting: as for B1, the figure is 700 nM; as for B2, 2600 nM.

In the next assay the target is T8, HLA-DR1 (DRB1*0101) (human).
T8 chain 1: not shown
T8 chain 2: not shown
The assay is described as above.
Details: not given
B3 registered an IC50 of 950 nM.
The same measure, in the same setting: as for B1, the figure is 51 nM; as for B2, 190 nM.
The molecule B9 registered an IC50 of 2 nM.
The molecule B17 displayed an IC50 of 6330 nM.

In a further assay the target is T9, HLA-DR4 (DRB1*0401) (human).
T9 chain 1: not shown
T9 chain 2: not shown
Described as above.
Details: not given
In the case of B3, the IC50 came out at 10500 nM.
Same read-out and setting: as for B1, the figure is 950 nM; as for B2, 2900 nM.

A further assay has as its target T10, HLA-DRB5 (DRB5*0101) (human).
T10 chain 1: not shown
T10 chain 2: not shown
Described as above.
Details: not given
Molecule B3 yielded an IC50 of 21000 nM.
Regarding B1, the IC50 amounted to 53 nM. Against the preceding molecule, the IC50 is about 400-fold lower.
The same measure, in the same setting: as for B2, the figure is 11 nM.

Usually IC50 stands for the concentration that gives 50% inhibition. Low values mean inhibition by little substance, high ones a need for much substance.
